What was measured:
[1] = ThT fluorescence aggregation kinetics of NANOG CTD; format: physicochemical, human
[2] = Gel-like condensate formation of NANOG CTD; format: physicochemical, human; details: absence of crowding agents

B1: NANOG CTD: C-terminal domain construct of human NANOG, contains the WR prion-like domain (protein)
chain: QKNNWPKNSNGVTQKASAPTYPSLYSSYHQGCLVNPTGNLPMWSNQTWNNSTWSNQTQNIQSWSNHSWNTQTWCTQSWNNQAWNSPFYNCGEESLQSCMQFQPNSPASDLEAALEAAGEGLNVIQQTTRYFSTPQTMDLFLNYSMNMQPEDV
ThT aggregation time constant (1/R) ([1]; 1.2 μM CTD (n=9)): 4.8 ± 0.2 min | ThT aggregation time constant (1/R) ([1]; 2.4 μM CTD (n=6)): 9.5 ± 0.1 min | concentration at which gel-like condensates form [2]: 5 µM

— patent US20240383953A1, “NOVEL NAN[…] NANOG PRION-LIKE REPEATS” (BAYLOR COLLEGE OF MEDICINE, priority 2021, published 2024)
